Biological target: recombinant full-length hemagglutinin H6 (A/Taiwan/2/2013) (influenza A virus H6N1 (A/Taiwan/2/2013))
Assay: BLI

B1: 3I14^D93N IgG1 (antibody, V domains shown)
VH: QVQLLESGGGVVQPGRSLRLSCAASGFTFSNYGMHWVRQAPGKGLEWVAIISFDGSKKYYANSVKGRSTISRDNSKNTLSLQMNSLGPEDTALYYCAKLPSPYYFDSRFVWVAASAFHFWGQGILVTVSS
VL: LTQPPSASGTPGQRVTISCSGSSSNIGGNTVHWFQQLPGTAPKLLIYTNSLRPSGVPDRFSGSKSGTSASLAISGLQSEDEADYYCAAWDNSLNGQVFGGGTKLTVL
In the case of B1, the Kd is reported as 0.4 nM.

From article PMC7835374 (2021)
